Several values for one entry are separate records, joined by “and”; a condition that tells them apart may be missing. Identical values can stand only once.
Legend:
Experiment in all cases: purified protein, by the assay type
Settings in all cases: other: 0.2 M TEA-HCl buffer, pH 7.6, 30° C.
[1] = substrate: CSCC[C@H](N)C(=O)O; type: biochemical
Protocol: (§1) To determine the kinetic constants, the reaction speed of oxidation was studied at different concentrations of amino acid and for different L-amino acids, under the following conditions (tests in microtiter plates):
(§2) 0.2 M TEA-HCl buffer, pH 7.6; 0.2 mg/mL o-dianisidine; 25 U/mL POX; L-amino acid oxidase in limiting amounts; varying concentrations of the different L-amino acids. Activity measurement was conducted by photometry at 450 nm and 30° C.
(§3) The kinetic constants Vmax.

[2] = substrate: NC(=O)C[C@H](N)C(=O)O; type: biochemical
Protocol: as §1, §2, §3

[3] = substrate: C[C@H](N)C(=O)O; type: biochemical
Protocol: as §1, §2, §3

[4] = substrate: N[C@@H](Cc1ccccc1)C(=O)O; type: biochemical
Protocol: as §1, §2, §3

[5] = substrate: NCCCC[C@H](N)C(=O)O; type: biochemical
Protocol: as §1, §2, §3

[6] = substrate: N[C@@H](CO)C(=O)O; type: biochemical
Protocol: as §1, §2, §3

[7] = substrate: N=C(N)NCCC[C@H](N)C(=O)O; type: biochemical
Protocol: as §1, §2, §3

[8] = substrate: NC(=O)NCCC[C@H](N)C(=O)O; type: biochemical
Protocol: as §1, §2, §3

[9] = substrate: NCCC[C@H](N)C(=O)O
[10] = substrate: NC(=O)CC[C@H](N)C(=O)O
[11] = substrate: CC[C@H](C)[C@H](N)C(=O)O
[12] = substrate: CC(C)C[C@H](N)C(=O)O
[13] = substrate: CC(C)[C@H](N)C(=O)O

B1: L-amino acid oxidase from Rhodococcus opacus (Rhodococcus opacus) (protein)
chain: AGDLIGKVKGSHSVVVLGGGPAGLCSAFELQKAGYKVTVLEARTRPGGRVWTARGGSEETDLSGETQKCTFSEGHFYNVGATRIPQSHITLDYCRELGVEIQGFGNQNANTFVNYQSDTSLSGQSVTYRAAKADTFGYMSELLKKATDQGALDQVLSREDKDALSEFLSDFGDLSDDGRYLGSSRRGYDSEPGAGLNFGTEKKPFAMQEVIRSGIGRNFSFDFGYDQAMMMFTPVGGMDRIYYAFQDRIGTDNIVFGAEVTSMKNVSEGVTVEYTAGGSKKSITADYAICTIPPHLVGRLQNNLPGDVLTALKAAKPSSSGKLGIEYSRRWWETEDRIYGGASNTDKDISQIMFPYDHYNSDRGVVVAYYSSGKRQEAFESLTHRQRLAKAIAEGSEIHGEKYTRDISSSFSGSWRRTKYSESAWANWAGSGGSHGGAATPEYEKLLEPVDKIYFAGDHLSNAIAWQHGALTSARDVVTHIHERVAQEA
notes: made in house; host or cells: Rhodococcus opacus DSM 43250, the natural producer; purified from crude cell extract, not recombinant
For B1, the Km [1] was 39 µM, the Km [2] was 28 µM and the Vmax [2] was 5.37 µmol/min/mg. For the same protein, the Km [3] was 274 µM, the Vmax [3] was 4.27 µmol/min/mg and the Km [4] was 19 µM. It also gave a Vmax [4] of 5.64 µmol/min/mg, a Km [5] of 15 µM and a Vmax [5] of 3.56 µmol/min/mg. It also gave a Km [6] of 1360 µM, a Vmax [6] of 4.36 µmol/min/mg and a Km [7] of 70 µM. The Vmax [7] was 8.12 µmol/min/mg, the Km [8] was 26 µM and the Vmax [8] was 5.47 µmol/min/mg. For the same protein, the Km [9] was 34 µM, the Vmax [9] was 7.48 µmol/min/mg and the Vmax [10] was 5.06 µmol/min/mg and 2.32 µmol/min/mg. For the same protein, the Km [11] was 5110 µM, the Vmax [11] was 2.84 µmol/min/mg and the Km [12] was 28 µM. The Vmax [12] was 6.45 µmol/min/mg, the Km [13] was 3730 µM and the Vmax [13] was 1.93 µmol/min/mg.

From patent US6461841B2, “L-amino acid oxidase from Rhodococcus species” (Degussa AG, priority 2000, dated 2002)
